According to patent US20260008815A1, “CYCLIC PEPTIDE OR SALT THEREOF, AND USES THEREOF” (FUJIFILM Corporation, priority 2023, published 2026):
Bridge positions count the residues as written; N and C are the ends. Ends that are not written are not given here. COCH2 = acetyl group that carries the bridge

B1: cyclic peptide SEQ ID NO: 133 (peptide)
peptide: ECLGNYFSHEQYQYLLQYK(COCH2)I
modifications: thioether 2-19
B2: cyclic peptide SEQ ID NO: 135 (peptide)
peptide: QCTYLAQYLVERYHLTK(COCH2)T
modifications: thioether 2-17
B3: cyclic peptide SEQ ID NO: 131 (peptide)
peptide: YCEENYLDPEQYQYFIYFK(COCH2)Y
modifications: thioether 2-19
B4: cyclic peptide SEQ ID NO: 139 (peptide)
peptide: ICEENYLDPEQYQYFIYFK(COCH2)Y
modifications: thioether 2-19
B5: cyclic peptide SEQ ID NO: 140 (peptide)
peptide: VCEENYLDPEQYQYFIYFK(COCH2)Y
modifications: thioether 2-19
B6: cyclic peptide SEQ ID NO: 172 (peptide)
peptide: YCEYNYLDPEQYQYFIYFK(COCH2)Y
modifications: thioether 2-19 (inferred)
B7: cyclic peptide SEQ ID NO: 156 (peptide)
peptide: YCFENYLDPEQYQYFIYFK(COCH2)Y
modifications: thioether 2-19
B8: cyclic peptide SEQ ID NO: 146 (peptide)
peptide: TCEENYLDPEQYQYFIYFK(COCH2)Y
modifications: thioether 2-19
B9: cyclic peptide SEQ ID NO: 147 (peptide)
peptide: DCEENYLDPEQYQYFIYFK(COCH2)Y
modifications: thioether 2-19
B10: cyclic peptide SEQ ID NO: 137 (peptide)
peptide: PCEENYLDPEQYQYFIYFK(COCH2)Y
modifications: thioether 2-19
B11: cyclic peptide SEQ ID NO: 158 (peptide)
peptide: YCWENYLDPEQYQYFIYFK(COCH2)Y
modifications: thioether 2-19
B12: cyclic peptide SEQ ID NO: 136 (peptide)
peptide: GCEENYLDPEQYQYFIYFK(COCH2)Y
modifications: thioether 2-19
B13: cyclic peptide SEQ ID NO: 174 (peptide)
peptide: YCENNYLDPEQYQYFIYFK(COCH2)Y
modifications: thioether 2-19 (inferred)
B14: cyclic peptide SEQ ID NO: 142 (peptide)
peptide: WCEENYLDPEQYQYFIYFK(COCH2)Y
modifications: thioether 2-19
B15: cyclic peptide SEQ ID NO: 149 (peptide)
peptide: RCEENYLDPEQYQYFIYFK(COCH2)Y
modifications: thioether 2-19
B16: cyclic peptide SEQ ID NO: 154 (peptide)
peptide: YCIENYLDPEQYQYFIYFK(COCH2)Y
modifications: thioether 2-19
B17: cyclic peptide SEQ ID NO: 164 (peptide)
peptide: YCRENYLDPEQYQYFIYFK(COCH2)Y
modifications: thioether 2-19
B18: cyclic peptide SEQ ID NO: 168 (peptide)
peptide: YCELNYLDPEQYQYFIYFK(COCH2)Y
modifications: thioether 2-19
B19: cyclic peptide SEQ ID NO: 141 (peptide)
peptide: FCEENYLDPEQYQYFIYFK(COCH2)Y
modifications: thioether 2-19
B20: cyclic peptide SEQ ID NO: 173 (peptide)
peptide: YCEWNYLDPEQYQYFIYFK(COCH2)Y
modifications: thioether 2-19 (inferred)
B21: cyclic peptide SEQ ID NO: 171 (peptide)
peptide: YCEFNYLDPEQYQYFIYFK(COCH2)Y
modifications: thioether 2-19 (inferred)
B22: cyclic peptide SEQ ID NO: 159 (peptide)
peptide: YCNENYLDPEQYQYFIYFK(COCH2)Y
modifications: thioether 2-19
B23: cyclic peptide SEQ ID NO: 150 (peptide)
peptide: HCEENYLDPEQYQYFIYFK(COCH2)Y
modifications: thioether 2-19
B24: cyclic peptide SEQ ID NO: 145 (peptide)
peptide: SCEENYLDPEQYQYFIYFK(COCH2)Y
modifications: thioether 2-19
B25: cyclic peptide SEQ ID NO: 144 (peptide)
peptide: QCEENYLDPEQYQYFIYFK(COCH2)Y
modifications: thioether 2-19
B26: cyclic peptide SEQ ID NO: 143 (peptide)
peptide: NCEENYLDPEQYQYFIYFK(COCH2)Y
modifications: thioether 2-19
B27: cyclic peptide SEQ ID NO: 169 (peptide)
peptide: YCEINYLDPEQYQYFIYFK(COCH2)Y
modifications: thioether 2-19
B28: cyclic peptide SEQ ID NO: 166 (peptide)
peptide: YCEGNYLDPEQYQYFIYFK(COCH2)Y
modifications: thioether 2-19
B29: cyclic peptide SEQ ID NO: 151 (peptide)
peptide: YCGENYLDPEQYQYFIYFK(COCH2)Y
modifications: thioether 2-19
B30: cyclic peptide SEQ ID NO: 160 (peptide)
peptide: YCQENYLDPEQYQYFIYFK(COCH2)Y
modifications: thioether 2-19
B31: cyclic peptide SEQ ID NO: 162 (peptide)
peptide: YCTENYLDPEQYQYFIYFK(COCH2)Y
modifications: thioether 2-19
B32: cyclic peptide SEQ ID NO: 148 (peptide)
peptide: ECEENYLDPEQYQYFIYFK(COCH2)Y
modifications: thioether 2-19
B33: cyclic peptide SEQ ID NO: 157 (peptide)
peptide: YCYENYLDPEQYQYFIYFK(COCH2)Y
modifications: thioether 2-19
B34: cyclic peptide SEQ ID NO: 163 (peptide)
peptide: YCDENYLDPEQYQYFIYFK(COCH2)Y
modifications: thioether 2-19
B35: cyclic peptide SEQ ID NO: 152 (peptide)
peptide: YCPENYLDPEQYQYFIYFK(COCH2)Y
modifications: thioether 2-19
B36: cyclic peptide SEQ ID NO: 155 (peptide)
peptide: YCVENYLDPEQYQYFIYFK(COCH2)Y
modifications: thioether 2-19
B37: cyclic peptide SEQ ID NO: 153 (peptide)
peptide: YCLENYLDPEQYQYFIYFK(COCH2)Y
modifications: thioether 2-19
B38: cyclic peptide SEQ ID NO: 165 (peptide)
peptide: YCHENYLDPEQYQYFIYFK(COCH2)Y
modifications: thioether 2-19
B39: cyclic peptide SEQ ID NO: 161 (peptide)
peptide: YCSENYLDPEQYQYFIYFK(COCH2)Y
modifications: thioether 2-19
B40: cyclic peptide SEQ ID NO: 138 (peptide)
peptide: LCEENYLDPEQYQYFIYFK(COCH2)Y
modifications: thioether 2-19
B41: cyclic peptide SEQ ID NO: 170 (peptide)
peptide: YCEVNYLDPEQYQYFIYFK(COCH2)Y
modifications: thioether 2-19
B42: cyclic peptide SEQ ID NO: 167 (peptide)
peptide: YCEPNYLDPEQYQYFIYFK(COCH2)Y
modifications: thioether 2-19
B43: cyclic peptide SEQ ID NO: 43 (peptide)
peptide: HCNANFVYQQQYLYLLQYK(COCH2)L
modifications: thioether 2-19 (inferred)
B44: cyclic peptide SEQ ID NO: 134 (peptide)
peptide: LCADQYDYLLQYVFWRTYK(COCH2)I
modifications: thioether 2-19

target: T1, Recombinant Human FGFR2 alpha (IIIc) Fc Chimera Protein, CF (R&D systems, 712-FR-050) (human, UniProt P21802 22-377); test: ELISA on plate-bound FGFR2-Fc
T1 construct: bought; not shown: Fc part of the chimera
T1 sequence (P21802 22-377, change not shown): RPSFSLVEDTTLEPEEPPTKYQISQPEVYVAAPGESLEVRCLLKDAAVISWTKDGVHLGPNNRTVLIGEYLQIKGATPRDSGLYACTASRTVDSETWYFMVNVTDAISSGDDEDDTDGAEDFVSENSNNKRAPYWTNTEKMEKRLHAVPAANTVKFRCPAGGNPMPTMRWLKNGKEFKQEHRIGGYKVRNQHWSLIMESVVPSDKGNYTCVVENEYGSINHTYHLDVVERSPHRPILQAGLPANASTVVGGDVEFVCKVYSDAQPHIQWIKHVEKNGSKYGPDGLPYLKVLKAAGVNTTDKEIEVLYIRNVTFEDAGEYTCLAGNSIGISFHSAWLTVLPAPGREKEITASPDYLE
Procedure: First, 5 ng of Recombinant Human FGFR2 alpha (IIIc) Fc Chimera Protein (R&D systems, 712-FR-050) was immobilized in each well of a 96-well plate, and blocked with Pierce Protein-Free (PBS) Blocking Buffer (Thermo, 37572), and a peptide diluted with Can Get Signal Immunoreaction Enhancer Solution I (TOYOBO, NKB-101) was then added and reacted at room temperature for 3 hours. After washing with 0.05% Tween 20-containing phosphate buffered saline (PBS), an anti-Myc antibody (Cell Signaling, 14038S) diluted with Can Get Signal Immunoreaction Enhancer Solution II (TOYOBO, NKB-101) was added and reacted at room temperature for 2 hours. After washing with 0.05% Tween 20-containing PBS, SuperSignal ELISA Femto Substrate (Thermo, 37075) was added, and the luminescence amount was measured. The dose-response relationship was calculated from using the difference between the luminescence amount in the well in which FGFR was immobilized and the luminescence amount in the well in which FGFR was not immobilized, and the concentration of the peptide at the time of reaction, and the binding affinity to FGFR was evaluated according to the following evaluation criteria. The evaluation result preferably satisfies the evaluation criteria A, B, or C.

First: B1
Second: B2
The “ELISA luminescence signal at 10 nmol/L peptide, relative to SEQ ID NO: 47 (=1)” value of the first is higher: no less than 0.7 ratio for the first, 0.1 to 0.5 ratio for the second.

B3 and B4 cannot be ordered by “ELISA luminescence signal at 10 nmol/L peptide, relative to SEQ ID NO: 47 (=1)” value: no less than 0.7 ratio for the first, no less than 0.7 ratio for the second.

B5 and B6 cannot be ordered by “ELISA luminescence signal at 10 nmol/L peptide, relative to SEQ ID NO: 47 (=1)” value: no less than 0.7 ratio for the first, no less than 0.7 ratio for the second.

B7 and B8 cannot be ordered by “ELISA luminescence signal at 10 nmol/L peptide, relative to SEQ ID NO: 47 (=1)” value: no less than 0.7 ratio for the first, no less than 0.7 ratio for the second.

B9 and B10 cannot be ordered by “ELISA luminescence signal at 10 nmol/L peptide, relative to SEQ ID NO: 47 (=1)” value: no less than 0.7 ratio for the first, no less than 0.7 ratio for the second.

B11 and B12 cannot be ordered by “ELISA luminescence signal at 10 nmol/L peptide, relative to SEQ ID NO: 47 (=1)” value: no less than 0.7 ratio for the first, no less than 0.7 ratio for the second.

B13 and B14 cannot be ordered by “ELISA luminescence signal at 10 nmol/L peptide, relative to SEQ ID NO: 47 (=1)” value: no less than 0.7 ratio for the first, no less than 0.7 ratio for the second.

B15 and B16 cannot be ordered by “ELISA luminescence signal at 10 nmol/L peptide, relative to SEQ ID NO: 47 (=1)” value: no less than 0.7 ratio for the first, no less than 0.7 ratio for the second.

B17 and B18 cannot be ordered by “ELISA luminescence signal at 10 nmol/L peptide, relative to SEQ ID NO: 47 (=1)” value: no less than 0.7 ratio for the first, no less than 0.7 ratio for the second.

B19 and B20 cannot be ordered by “ELISA luminescence signal at 10 nmol/L peptide, relative to SEQ ID NO: 47 (=1)” value: no less than 0.7 ratio for the first, no less than 0.7 ratio for the second.

B21 and B22 cannot be ordered by “ELISA luminescence signal at 10 nmol/L peptide, relative to SEQ ID NO: 47 (=1)” value: 0.5 to 0.7 ratio for the first, no less than 0.7 ratio for the second.

B23 and B24 cannot be ordered by “ELISA luminescence signal at 10 nmol/L peptide, relative to SEQ ID NO: 47 (=1)” value: no less than 0.7 ratio for the first, no less than 0.7 ratio for the second.

B25 and B26 cannot be ordered by “ELISA luminescence signal at 10 nmol/L peptide, relative to SEQ ID NO: 47 (=1)” value: no less than 0.7 ratio for the first, no less than 0.7 ratio for the second.

B27 and B28 cannot be ordered by “ELISA luminescence signal at 10 nmol/L peptide, relative to SEQ ID NO: 47 (=1)” value: no less than 0.7 ratio for the first, no less than 0.7 ratio for the second.

B29 and B30 cannot be ordered by “ELISA luminescence signal at 10 nmol/L peptide, relative to SEQ ID NO: 47 (=1)” value: no less than 0.7 ratio for the first, no less than 0.7 ratio for the second.

B31 and B32 cannot be ordered by “ELISA luminescence signal at 10 nmol/L peptide, relative to SEQ ID NO: 47 (=1)” value: no less than 0.7 ratio for the first, no less than 0.7 ratio for the second.

B33 and B34 cannot be ordered by “ELISA luminescence signal at 10 nmol/L peptide, relative to SEQ ID NO: 47 (=1)” value: no less than 0.7 ratio for the first, no less than 0.7 ratio for the second.

B35 and B36 cannot be ordered by “ELISA luminescence signal at 10 nmol/L peptide, relative to SEQ ID NO: 47 (=1)” value: no less than 0.7 ratio for the first, no less than 0.7 ratio for the second.

B37 and B38 cannot be ordered by “ELISA luminescence signal at 10 nmol/L peptide, relative to SEQ ID NO: 47 (=1)” value: no less than 0.7 ratio for the first, no less than 0.7 ratio for the second.

B39 and B40 cannot be ordered by “ELISA luminescence signal at 10 nmol/L peptide, relative to SEQ ID NO: 47 (=1)” value: no less than 0.7 ratio for the first, no less than 0.7 ratio for the second.

B41 and B42 cannot be ordered by “ELISA luminescence signal at 10 nmol/L peptide, relative to SEQ ID NO: 47 (=1)” value: no less than 0.7 ratio for the first, no less than 0.7 ratio for the second.

First: B43
Second: B44
The “ELISA luminescence signal at 10 nmol/L peptide, relative to SEQ ID NO: 47 (=1)” value of the first is higher: 0.5 to 0.7 ratio for the first, 0.1 to 0.5 ratio for the second.
